Laboratory results published in patent publication US20220275049A1 (AGENUS, published 2022).
Square brackets hold non-standard residues; d marks the D form. Ends that are not written are not given here. pY = N[C@@H](Cc1ccc(OP(=O)(O)O)cc1)C(=O)O; pT = C[C@@H](OP(=O)(O)O)[C@H](N)C(=O)O; pS = N[C@@H](COP(=O)(O)O)C(=O)O

Key:
Test in all cases: AlphaScreen, peptide titrated on biotinylated HLA + b2m
[1] = biological target: T1, biotinylated HLA-B*07:02 with β2m (human, biotinylated)
T1 construct: also called B*07:02 (as the text prints it)
Procedure: (§1) An AlphaScreen® assay was used to evaluate the binding of peptides to HLA molecules. Donor beads conjugated with streptavidin, and acceptor beads conjugated with the anti-human HLA class I antibody W6/32, were used to assess peptide binding. Biotinylated HLAs (A*02:01, B*07:02, C*07:01, or C*07:02) were mixed with a fixed excess of β2m and the mixtures added to each well of a 384-well microplate. Serial dilutions of the synthesized phosphopeptides were added to the wells, and the resultant HLA/β2/peptide mixtures were incubated overnight at 18° C. W6/32 conjugated acceptor beads were subsequently added to the wells, and the mixture was incubated for 1 hour at 21° C. Streptavidin conjugated donor beads were then added to the wells, and the mixture was incubated for a further 1 hour at 21° C.
(§2) The microplate was read using the PerkinElmer® plate reader, and data were plotted using the Michaelis-Menten equation to determine the Kd for each phosphopeptide.

[2] = biological target: T2, biotinylated HLA-A*02:01 with β2m (human, biotinylated)
T2 construct: HLA heavy chain mixed with excess β2m; the peptide is titrated onto it
Procedure: as §1, §2

[3] = biological target: biotinylated HLA-C*07:02 with β2m (human, biotinylated)
Procedure: as §1, §2

[4] = biological target: biotinylated HLA-C*07:01 with β2m (human, biotinylated)
Procedure: as §1, §2

| Binder | Kd [1] [nM] | Kd [2] [nM] | binding result [1] | also measured |
| --- | --- | --- | --- | --- |
| RPAFF[pS]PSL [RPAFFsPSL] | 398 |  |  | binding result [2]: no binding |
| RLS[pS]PLHFV [RLSsPLHFV] |  | 90.6 |  |  |
| FRR[pS]PTKSSLDY [FRRsPTKSSLDY] |  |  |  | Kd [3]: 98.6 nM |
| SLF[pS]PQNTL [SLFsPQNTL] |  | 116 |  |  |
| SLQ[pS]LETSV [SLQsLETSV] |  | 121 | no binding | binding result [3]: no binding; binding result [4]: no binding |
| RPF[pS]PREAL [RPFsPREAL] | 163 |  |  |  |
| RPK[pT]PPVVI [RPKtPPVVI] |  |  |  | binding result [2]: no binding |
| TVF[pS]PTLPAA [TVFsPTLPAA] |  | 46.9 | no binding | binding result [3]: no binding; binding result [4]: no binding |
| VLFS[pS]PPQM [VLFSsPPQM] |  | 227 | no binding | binding result [3]: no binding |
| RRI[pS]DPQVF [RRIsDPQVF] |  |  | no binding | Kd [3]: 19.9 nM; Kd [4]: 11.4 nM |
| SPA[pS]PKISL [SPAsPKISL] | 275 |  |  |  |
| RPR[pS]ISVEEF [RPRsISVEEF] | 86.1 |  |  |  |
| KRF[pS]GTVRL [KRFsGTVRL] |  |  | no binding |  |
| SLF[pS]SEESNLGA [SLFsSEESNLGA] |  | 149 | no binding | binding result [3]: no binding; binding result [4]: no binding |
| SLF[pS]SEESNL [SLFsSEESNL] |  | 466 | no binding | binding result [3]: no binding; binding result [4]: no binding |
| RRF[pS]GTAVY [RRFsGTAVY] |  |  | no binding | Kd [3]: 16.7 nM; Kd [4]: 2180 nM |
| SPFKRQL[pS]L [SPFKRQLsL] | 64.7 |  |  |  |
| RPDVAKRL[pS]L [RPDVAKRLsL] | 216 |  |  |  |
| RRS[pS]FLQVF [RRSsFLQVF] |  |  | no binding | Kd [3]: 19 nM |
| RRL[pS]FLVSY [RRLsFLVSY] |  |  |  | Kd [3]: 113 nM; Kd [4]: 1570 nM |
| RIYQ[pY]IQSR [RIYQyIQSR] |  |  |  | binding result [2]: no binding |
| RLL[pS]FQRYL [RLLsFQRYL] |  | 49.7 | no binding |  |

| Binder | Kd [1] [nM] | Kd [2] [nM] | binding result [1] | also measured |
| --- | --- | --- | --- | --- |
| RPRIP[pS]PIGF [RPRIPsPIGF] | 84.4 |  |  | binding result [2]: no binding |
| LPA[pS]PRARL [LPAsPRARL] | 83.5 |  |  |  |
| SIM[pS]PEIQL [SIMsPEIQL] |  | 84 | no binding |  |
| KIK[pS]FEVVF [KIKsFEVVF] |  |  | no binding |  |
| SMS[pS]LSREV [SMSsLSREV] |  | 927 | no binding | binding result [3]: no binding; binding result [4]: no binding |
| RPY[pS]PPFFSL [RPYsPPFFSL] | 157 |  |  |  |
| SLF[pS]GDEENA [SLFsGDEENA] |  | 278 | no binding | binding result [3]: no binding; binding result [4]: no binding |
| LPRPA[pS]PAL [LPRPAsPAL] | 223 |  |  | binding result [2]: no binding |
| SIS[pS]MEVNV [SISsMEVNV] |  | 306 | no binding | binding result [3]: no binding; binding result [4]: no binding |
| AVRPTRL[pS]L [AVRPTRLsL] | 117 |  |  | binding result [2]: no binding |
| YRY[pS]PQSFL [YRYsPQSFL] |  |  | no binding | binding result [2]: no binding |
| SISS[pT]PPAV [SISStPPAV] |  | 169 | no binding | binding result [3]: no binding; binding result [4]: no binding |
| RIYQ[pY]IQSRF [RIYQyIQSRF] |  |  |  | Kd [3]: 377 nM; Kd [4]: 477 nM |
| RRP[pS]LLSEF [RRPsLLSEF] |  |  |  | Kd [3]: 35.7 nM; Kd [4]: 804 nM |
| [pY]LQSRYYRA [yLQSRYYRA] |  | 255 |  | binding result [4]: no binding |
| RLL[pS]AAENFL-OH (N-terminus assumed; SMILES CC(C)C[C@H](NC(=O)[C@H](Cc1ccccc1)NC(=O)[C@H](CC(N)=O)NC(=O)[C@H](CCC(=O)O)NC(=O)[C@H](C)NC(=O)[C@H](C)NC(=O)[C@H](COP(=O)(O)O)NC(=O)[C@H](CC(C)C)NC(=O)[C@H](CC(C)C)NC(=O)[C@@H](N)CCCNC(=N)N)C(=O)O) [RLLsAAENFL] |  | 114 |  |  |
| SLHDIQL[pS]L [SLHDIQLsL] | 642 | 31.9 |  | Kd [3]: 413 nM; Kd [4]: 962 nM |
| SVKPRRT[pS]L [SVKPRRTsL] |  |  |  | binding result [3]: no binding; binding result [2]: no binding; binding result [4]: no binding |
| RRG[pS]FEVTL [RRGsFEVTL] |  |  | no binding | Kd [3]: 15.9 nM; Kd [4]: 16.6 nM |
| RPR[pS]PTGPSNSFL [RPRsPTGPSNSFL] | 360 |  |  | binding result [2]: no binding |
| RPRPV[pS]PSSLL [RPRPVsPSSLL] | 186 |  |  |  |
